Test [1] addresses T1, human CD3εγ-Fc heterodimer (human).
T1 construct: also called human CD3 εγ protein; recombinant CD3 εγ protein
T1 chain 1: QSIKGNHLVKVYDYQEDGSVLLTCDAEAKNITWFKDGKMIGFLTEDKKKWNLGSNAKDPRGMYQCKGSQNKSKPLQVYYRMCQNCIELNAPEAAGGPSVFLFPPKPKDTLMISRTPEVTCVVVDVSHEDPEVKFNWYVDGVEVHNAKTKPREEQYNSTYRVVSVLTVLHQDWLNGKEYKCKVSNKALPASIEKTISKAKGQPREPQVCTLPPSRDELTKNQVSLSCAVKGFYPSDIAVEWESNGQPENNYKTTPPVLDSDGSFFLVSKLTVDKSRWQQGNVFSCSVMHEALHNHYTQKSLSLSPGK
T1 chain 2: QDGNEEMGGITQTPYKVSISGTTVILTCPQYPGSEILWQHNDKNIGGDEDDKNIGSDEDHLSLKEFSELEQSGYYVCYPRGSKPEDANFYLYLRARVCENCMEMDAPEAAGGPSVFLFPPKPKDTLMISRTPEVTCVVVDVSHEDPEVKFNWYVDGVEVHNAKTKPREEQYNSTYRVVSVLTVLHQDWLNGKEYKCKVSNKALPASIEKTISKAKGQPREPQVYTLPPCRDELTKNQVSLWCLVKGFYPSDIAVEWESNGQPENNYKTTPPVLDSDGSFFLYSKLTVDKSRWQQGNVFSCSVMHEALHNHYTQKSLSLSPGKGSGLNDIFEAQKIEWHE
As to the kind of experiment: ELISA on coated human CD3εγ protein, A450 [panel Human CD3 εγ dimer]. The method, then: (§1) Human CD3 εγ protein and monkey CD3 εγ protein were coated separately overnight at 4° C. After blocking with 2% skim milk, different dilutions of CD3 antibody were added to each well and incubated for 1 hour. The secondary antibody HPR-labeled goat anti-human IgG Fc was added. After being developed by the TMB solution. The reaction was stopped with the concentrated sulfuric acid and the absorbance was read at 450 nm.

Test [2] concerns the target T2, human CD3 on T cells (human, UniProt P07766 23-207).
T2 construct: whole, on cells; The target is the native CD3 complex on cells; The recombinant antigen used elsewhere is the εγ heterodimer; also called CD3 on Jurkat cells; CD3 on human peripheral blood CD4+ and CD8+ T cells
As to the kind of experiment: flow cytometry, Jurkat cells. The method, then:
Jurkat cells in the logarithmic growth phase were taken, blocked with 3% BSA for 30 min, and added to 96-well U-plate at 5×10⁴ cells per well. The supernatant was discarded after centrifugation. 50 μL of gradient diluted antibody was added (antibody concentration: from 30 ng/mL, 3-fold dilution for 5 gradients) per well, and incubated at 4° C. for 1 hour. […] After washing, 50 μL PBS was added per well to perform resuspending for FACS (iQue, intellicyt) assay (the results are seen in FIG. 13, and Table 10).

Test [3] addresses T3, cynomolgus monkey CD3εγ-Fc heterodimer (cynomolgus monkey).
T3 construct: also called monkey CD3 εγ protein
T3 chain 1: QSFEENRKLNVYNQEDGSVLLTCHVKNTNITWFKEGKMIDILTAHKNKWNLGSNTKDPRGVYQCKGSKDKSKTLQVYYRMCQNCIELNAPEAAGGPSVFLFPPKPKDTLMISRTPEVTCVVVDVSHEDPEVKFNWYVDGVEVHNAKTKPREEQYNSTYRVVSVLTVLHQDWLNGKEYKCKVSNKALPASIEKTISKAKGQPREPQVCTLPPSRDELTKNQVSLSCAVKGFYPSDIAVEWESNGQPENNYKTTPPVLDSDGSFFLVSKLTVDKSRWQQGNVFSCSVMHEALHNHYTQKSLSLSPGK
T3 chain 2: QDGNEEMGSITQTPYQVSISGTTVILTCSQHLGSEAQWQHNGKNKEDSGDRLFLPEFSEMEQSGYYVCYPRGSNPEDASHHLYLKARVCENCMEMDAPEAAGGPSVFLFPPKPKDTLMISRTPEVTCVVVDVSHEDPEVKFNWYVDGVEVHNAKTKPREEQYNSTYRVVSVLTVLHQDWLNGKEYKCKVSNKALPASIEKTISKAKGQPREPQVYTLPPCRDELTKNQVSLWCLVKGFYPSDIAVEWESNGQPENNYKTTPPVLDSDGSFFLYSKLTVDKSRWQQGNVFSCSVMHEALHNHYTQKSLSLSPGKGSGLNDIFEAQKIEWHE
In words: ELISA on coated monkey CD3εγ protein, A450 [panel Monkey CD3 εγ dimer]. The method, then: as §1

Test [4] concerns the target T1, human CD3εγ-Fc heterodimer. In words: ELISA, coated human CD3εγ protein. The method, then: Human CD3 εγ protein was coated overnight at 4° C. After blocking with 2% skim milk, different dilutions of CD3 antibodies was added to each well and incubated for 1 hour. The secondary antibody HPR-labeled goat anti-human IgG Fc was added. After being developed by the TMB solution, the reaction was stopped with the concentrated sulfuric acid, and the absorbance was read at 450 nm (the results are shown in FIG. 12 and Table 8).

In test [5] the target is T4, human GPC3 on cells (human, UniProt P51654 25-563).
T4 construct: whole, on cells; One molecule is used for both CHO-hGPC3 transfectants and GPC3+ HepG2 cells; The assay field names the cell; also called CHO-hGPC3 (clone 2B10); CHO-human GPC3
As to the kind of experiment: flow cytometry, CHO-human GPC3 cells. The method, then: The binding of the antibodies to human GPC3 stably-transfected cells was detected by FACS. CHO-human GPC3 stably-transfected cells prepared in Example 1 in the logarithmic growth phase were adjusted to 5×10⁵ cells/ml with 4% calf serum (Hyclone, SH30626.06). 100 μl/well of cell suspension was added to a 96-well U-plate, and centrifuged at 300 g for 5 min. The supernatant was discarded. 100 μL of gradient diluted antibodies (initial concentration 200 nM, 3-fold dilution, 12 gradients) was added to each well and incubated at 4° C. for 45 min. The secondary antibody Alexa Fluro647 labeled goat anti-human IgG Fc (1:300 dilution) was added at 50 μL/well, incubated on ice for 45 minutes, and detected by flow cytometry.

Test [6] addresses T5, recombinant cynomolgus monkey GPC3 full-length protein (cynomolgus monkey, UniProt A0A2K5VK50 24-558). In words: ELISA, coated antigen 1 µg/ml. The method, then: (§2) The high-affinity positive clone 49G8 was selected to detect binding activity to recombinant human, cynomolgus monkey, mouse GPC3 full-length proteins, and recombinant human GPC3 extracellular domain membrane-proximal proteins. 1 μg/ml of the above-mentioned protein was coated overnight at 4° C. After blocking, 49G8 chimeric antibody (initial concentration 200 nM, 3-fold gradient dilution, a total of 12 concentrations) was added and reacted for 1 hour at room temperature. The secondary antibody HPR-labeled goat anti-human IgG Fc was added. After being developed by the TMB solution, the reaction was stopped with concentrated sulfuric acid, and the absorbance was read at […]. The 49G8 antibody can bind to the full-length human and cynomolgus monkey GPC3 proteins and the membrane-proximal end of the extracellular region of human GPC3 with a slightly higher affinity than the control antibody and a weak affinity to mouse GPC3 protein (Table 3).

In test [7] the target is T6, recombinant GST-human GPC3 stem protein (human).
T6 construct: also called recombinant human GPC3 extracellular domain membrane-proximal protein
T6 sequence (chain, as listed by the source limits assumed): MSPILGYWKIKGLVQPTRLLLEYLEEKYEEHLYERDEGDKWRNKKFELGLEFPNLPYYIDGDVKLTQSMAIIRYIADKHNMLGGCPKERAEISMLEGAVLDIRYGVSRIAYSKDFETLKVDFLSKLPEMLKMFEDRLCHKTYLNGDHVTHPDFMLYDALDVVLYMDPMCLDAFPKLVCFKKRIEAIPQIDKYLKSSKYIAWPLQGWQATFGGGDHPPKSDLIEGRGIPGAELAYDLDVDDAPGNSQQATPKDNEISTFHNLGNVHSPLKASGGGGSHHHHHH
In words: ELISA, coated antigen 1 µg/ml. The method, then: as §2

Test [8] addresses T7, recombinant human GPC3 protein (human, UniProt P51654 25-563).
T7 construct: also called human GPC3 full-length protein; recombinant GPC3 protein
As to the kind of experiment: ELISA, coated antigen 1 µg/ml. The method, then: as §2

Test [9] addresses T5, recombinant cynomolgus monkey GPC3 …. In words: ELISA on coated recombinant cynomolgus monkey GPC3 protein, OD450 [panel Recombinant cynomolgus monkey GPC3 protein].
Test [10] addresses T7, recombinant human GPC3 protein. In words: ELISA on coated recombinant human GPC3 protein, OD450 [panel Recombinant human GPC3 protein].
The target is the same in test [11]. As to the kind of experiment: BLI (Octet), antibody on Protein A probe. The method, then: Using BLI technology (Octet), the antibody to be tested was captured on the Protein A probe. The binding capacity with human GPC3 protein (10 μg/ml as the initial concentration, 2-fold gradient, a total of 5 concentration points) was detected. The affinity constant KD was obtained according to the association and dissociation rates. The 49G8 humanized antibody binds to the recombinant GPC3 protein with high affinity. The affinity data is seen in Table 6.

Test [12] has the same target. In words: BLI (Octet), antibody on Protein A probe. The method, then: Using BLI technology (Octet), the antibody to be tested was captured on the Protein A probe. The binding capacity with human GPC3 protein (10 μg/ml as the initial concentration, 2-fold gradient, a total of 5 concentration points) was detected. The affinity constant KD was obtained according to the association and dissociation rates.
This is another data set of the same source.

Like-named read-outs stand apart in the source and are kept apart here.

B1: aCD3-hVH9/VL5 (antibody, V domains shown)
VH: EVQLVESGGGLVQPGGSLRLSCAASGFTFNTYAMNWVRKAPGKGLEWVGRIRSKYNNYATYYADSVKDRFTISRDDSKNSLYLQMNSLKTEDTAVYYCVRHGNFGNSYVSWFAYWGQGTLVTVSS
VL: QAVVTQEPSLTVSPGGTVTLTCRSSTGAVTTSNYANWVQEKPGQAPRGLIGGTNKRAPWTPARFSGSLLGGKAALTITGAQAEDEAEYYCVLWYSNLWVFGGGTKLTVL
notes: Human IgG4, lambda
Consider B1, for which the “EC50 (read off the curve)” value in test [1] and in test [3] was roughly 0.05 ng/mL throughout. Also, the values for the EC50 in test [2] and in test [4] were 20000 pM and 420 pM, respectively.

B2: 49G8 (antibody, V domains shown)
VH: QVQLQQSGAELVRPGASVKLSCKALGYTFADYEIHWVKQTPVHGLEWIGAIHPGSGGTAYNQTFEGKATLTADKSSTTAYMELSSLTSEDSAVYYCTRYYSFAYWGQGTLVTVSA
VL: DVVMTQTPLSLPVSLGDQASISCRSSQSIVHSNGNTYLEWYLQKPGQSPKLLIYKVSNRFSGVPDRFSGSGSGTDFTLKISRVEAEDLGVYFCLQVTHVPLTFGAGTKLELK
notes: Chimeric human IgG1; also called 49G8 chimeric antibody; Mab 49G8
With B2, the EC50 worked out at 1180 pM in test [5], 120 pM in [6], 74 pM in test [7] and 72 pM in test [8]. In addition, the “EC50 (read off the curve)” value in test [9] and in test [10] was roughly 30 pM in each case. Also, the values for the equilibrium dissociation constant (Kd) in [11] and in test [12] were 1170 pM and 3320 pM, respectively. Moreover, the koff in test [11] was 9.35e-05 s⁻¹; in test [12], 0.000231 s⁻¹. The kon in test [11] is 79700 M⁻¹ s⁻¹; in test [12], 69400 M⁻¹ s⁻¹.
